For data set [1], the target named is lactate dehydrogenase from Lactobacillus helsingborgensis (Lactobacillus helsingborgensis). Nature of the data set: SEC-MALS.
The data set “SEC-MALS” deals with the molecule itself. Nature of the data set: SEC-MALS. A general note: SEC sorts molecules by how far they enter the pores of the column.

As usually defined, the stoichiometry N is a count of units in the complex or per binding partner.

In data set [1], “lactate dehydrogenase from Lactobacillus helsingborgensis (enzyme)” returned a stoichiometry N of 8.

B1: lactate dehydrogenase from Lactobacillus johnsonii (enzyme)
chain: MTTYYKGFPQSTREEKLHMVNLDELEHEAKYVMPEAAYYYVASGAENEWTWRNNTQAFNHFQIVPRALTGMQNPELNTEFLGMKLKTPVMICPIACHGIANAEAEIDTAKGAKAAGALFAMSTYANKSVQEVQSAVGDSPRFMQLYLSKNWDFNKMVIEESVKAGFTGFFLTVDALVSGYREANLRTNFTYPVPLAFFNEWNGGKGEGQSVAQMYASSAQNIGPDDIRKIKEIADVPVIVKGVECAEDAMLAIGTGADGIVVSNHGGREVDGAPATIDVLPEIAKAVRSCDHRVPIILDGGVRRGSHVFKALALGADLVGIGRPFLYGLALGGAQGVQSVIEQLNKELLIDMQLTGCKTIEDIKHAKIDHINYSADWGISSTSRSVMKPYPVTKENQLTGEAADAVSGASRH
Regarding B1, the “stoichiometry N” value in “SEC-MALS” was determined as 8.

For the origin of these results see paper PMC9670274 (ACS Omega, 2022).
